The record followed here is paper PMC12462528, “Molecular basis of ParA ATPase activation by the CTPase ParB during bacterial chromosome segregation” (Nature Communications, 2025).

Changes are numbered by the printed parent chain. Names may count otherwise.

In data set [1] the target is T1, ParA (His6-ParA) (Myxococcus xanthus) (UniProt Q1CVJ3).
T1 sequence: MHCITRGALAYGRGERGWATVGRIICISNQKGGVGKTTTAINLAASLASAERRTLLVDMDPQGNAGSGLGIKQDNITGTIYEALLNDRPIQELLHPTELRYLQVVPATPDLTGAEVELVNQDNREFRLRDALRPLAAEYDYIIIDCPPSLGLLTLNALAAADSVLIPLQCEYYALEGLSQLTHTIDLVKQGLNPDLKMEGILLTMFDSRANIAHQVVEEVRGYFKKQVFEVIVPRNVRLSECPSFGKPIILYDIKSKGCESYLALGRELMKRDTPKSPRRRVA
Briefly: BLI. Conditions: BLI: 25 mM HEPES/KOH pH 7.6, 100 mM KCl (150 or 500 mM where stated), 10 mM MgSO4, 1 mM DTT, 10 mM (so in the source) BSA, 0.01% Tween 20; temperature not stated.

Data set [2] has as its target T2, ParA-D60A D60A (Myxococcus xanthus) (UniProt Q1CVJ3).
T2 sequence: T1 sequence with D60A
Briefly: BLI. Conditions: BLI: 25 mM HEPES/KOH pH 7.6, 100 mM KCl (150 or 500 mM where stated), 10 mM MgSO4, 1 mM DTT, 10 mM (so in the source) BSA, 0.01% Tween 20; temperature not stated.

Data set [3] concerns the target T3, ParA-R238E (ParA*) R238E (Myxococcus xanthus) (UniProt Q1CVJ3).
T3 sequence: T1 sequence with R238E
In words: BLI. To be noted: BLI: 25 mM HEPES/KOH pH 7.6, 100 mM KCl (150 or 500 mM where stated), 10 mM MgSO4, 1 mM DTT, 10 mM (so in the source) BSA, 0.01% Tween 20; temperature not stated.

Data set [4] addresses T4, ParB (Myxococcus xanthus) (UniProt Q1CVJ4).
T4 sequence: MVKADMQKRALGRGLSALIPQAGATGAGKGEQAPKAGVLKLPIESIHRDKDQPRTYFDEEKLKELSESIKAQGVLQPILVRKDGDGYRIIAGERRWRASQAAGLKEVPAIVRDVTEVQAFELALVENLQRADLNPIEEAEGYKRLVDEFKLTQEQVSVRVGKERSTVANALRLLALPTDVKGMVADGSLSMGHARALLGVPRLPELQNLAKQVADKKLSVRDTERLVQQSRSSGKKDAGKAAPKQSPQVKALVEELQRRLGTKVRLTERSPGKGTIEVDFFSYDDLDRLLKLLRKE
In words: BLI. Conditions: BLI: 25 mM HEPES/KOH pH 7.6, 100 mM KCl (150 or 500 mM where stated), 10 mM MgSO4, 1 mM DTT, 10 mM (so in the source) BSA, 0.01% Tween 20; temperature not stated.

Data set [5] has as its target T5, ParB delta21 del1-21 (Myxococcus xanthus) (UniProt Q1CVJ4).
T5 sequence: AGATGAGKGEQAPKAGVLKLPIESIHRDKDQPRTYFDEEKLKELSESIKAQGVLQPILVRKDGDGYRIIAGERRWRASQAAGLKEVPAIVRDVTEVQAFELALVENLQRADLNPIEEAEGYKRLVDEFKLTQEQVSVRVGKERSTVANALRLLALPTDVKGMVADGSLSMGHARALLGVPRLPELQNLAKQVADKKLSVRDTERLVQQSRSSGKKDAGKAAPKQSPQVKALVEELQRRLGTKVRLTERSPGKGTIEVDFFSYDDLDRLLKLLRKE
Briefly: BLI. To be noted: BLI: 25 mM HEPES/KOH pH 7.6, 100 mM KCl (150 or 500 mM where stated), 10 mM MgSO4, 1 mM DTT, 10 mM (so in the source) BSA, 0.01% Tween 20; temperature not stated.

For data set [6], the target named is T6, ParB-Q52A (ParB*) Q52A (Myxococcus xanthus) (UniProt Q1CVJ4).
T6 sequence: T4 sequence with Q52A
Briefly: BLI. Conditions: BLI: 25 mM HEPES/KOH pH 7.6, 100 mM KCl (150 or 500 mM where stated), 10 mM MgSO4, 1 mM DTT, 10 mM (so in the source) BSA, 0.01% Tween 20; temperature not stated.

In data set [7] the test system is ParA (His6-ParA) (Myxococcus xanthus). Briefly: BLI. To be noted: 1 mM ATP, BLI: 25 mM HEPES/KOH pH 7.6, 100 mM KCl (150 or 500 mM where stated), 10 mM MgSO4, 1 mM DTT, 10 mM (so in the source) BSA, 0.01% Tween 20, temperature not stated.
Data set [8] concerns the molecule itself. In words: crystal structure; His6-ParA_(21-274)-D60A (1 mM) with 10 mM ATP and 5 mM ParB_(1-20), sitting drop, 20 °C; crystals held only the ParA dimer with ATP.
The target of a further data set is T7, ParB-Q52A (Myxococcus xanthus DK1622, UniProt Q1CVJ4 1-296, Q52A).
T7 construct: ParB of Myxococcus xanthus DK1622, variant lacking CTPase activity; Closed clamps formed with CTP and parS DNA; also called CTP hydrolysis-deficient ParB variant; source: E. coli Rosetta(DE3)pLysS, purified (as wild-type ParB)
T7 sequence (looked up): T4 sequence with Q52A
In words: BLI; ParB-Q52A (10 µM) loaded on closed parS DNA on the biosensor; ParA variants (5 µM) in solution with ATP (1 mM) and 500 mM KCl. Conditions: both partners purified. In general terms: Biolayer interferometry detects binding as a change in optical thickness at a sensor tip.

Data set [9] concerns the molecule itself. Briefly: SEC; ParA proteins at 2.5 mg/mL (75 µM) in 25 mM Tris/HCl, 200 mM KCl, 5 mM MgSO4, 2 mM DTT, pH 7.4; Superdex 75 3.2/300; monomer to dimer.
The next data set concerns the target T8, ParB-Q52A-R13K (Myxococcus xanthus DK1622, UniProt Q1CVJ4 1-296, Q52A | R13K).
T8 construct: ParB of Myxococcus xanthus DK1622, ParB-Q52A variant lacking the conserved residue R13; also called ParB* R13K; R13K variant; source: E. coli Rosetta(DE3)pLysS, purified (as wild-type ParB)
T8 sequence (looked up): T4 sequence with R13K, Q52A
Briefly: BLI; ParB-Q52A variants loaded on closed parS DNA on the biosensor with CTP; ParA-R238E (5 µM) in solution with ATP and CTP (1 mM each). Conditions: both partners purified.

A further data set deals with T9, ParB-Q52A-R13A (Myxococcus xanthus DK1622, UniProt Q1CVJ4 1-296, Q52A | R13A).
T9 construct: ParB of Myxococcus xanthus DK1622, ParB-Q52A variant lacking the conserved residue R13; also called ParB* R13A; R13A variant; source: E. coli Rosetta(DE3)pLysS, purified (as wild-type ParB)
T9 sequence (looked up): T4 sequence with R13A, Q52A
Described as above. Conditions: both partners purified.

In a further data set the target is T10, ParB (wild type) (Myxococcus xanthus DK1622, UniProt Q1CVJ4 1-296).
T10 construct: ParB of Myxococcus xanthus DK1622, translation product of ORF MXAN_7476; In the BLI assays loaded as a closed clamp on parS-containing DNA with CTPγS; also called M. xanthus ParB; wild-type ParB; source: E. coli Rosetta(DE3)pLysS, purified (HisTrap HP, Ulp1 cleavage, HiTrap SP HP)
T10 sequence (looked up): T4 sequence
In words: BLI; double-biotinylated 234-bp parS DNA on streptavidin biosensor, loaded with ParB or its derivatives (10 µM) and 1 mM CTPγS; ParA-R238E variants in solution with 1 mM ATP; 25 mM HEPES/KOH pH 7.6, 100 mM KCl, 10 mM MgSO4, 1 mM DTT; apparent KD. To be noted: both partners purified.

With “TCCGCTTGGCGTGAGTTCCTGACGCTTGGTGGGAAGGATGCGCGTGCTGATGCGTGCACCTCAGTGAAGTGGATGGCGCGGCTGCTCATGCGCGGGTTGCTCAGCGCCTGTTCCACGTGGAACGCGGGATGGATTGATGGTGGGCACGCGCGCAGCGCCGGAGAGTTCGCTGACGGCTCCGCGTTCAGGCTCGTGATGCGCTCATGGTTCATGGAGTGGTGAGTGCTCCACCGG (double strand) [234-bp parS fragment, closed on biosensor]”, the Kd in data set [1] was 400 nM. Moreover, the binding entry in data set [2] is “binds”; in [3] it was “no binding”; in [4], “binds”; in data set [5] it was “binds”; in data set [6] it was “binds”.
“234-bp parS fragment, closed on biosensor”: the Kd turned out to be 400 nM in data set [7] (150 uM ParB1-20 peptide) and 7800 nM in [7] (no ParB1-20 peptide).

B1: His6-ParA_(21-274)-D60A (domain or fragment, Myxococcus xanthus DK1622, UniProt Q1CVJ3 21-274, looked up)
chain: VGRIICISNQKGGVGKTTTAINLAASLASAERRTLLVDMAPQGNAGSGLGIKQDNITGTIYEALLNDRPIQELLHPTELRYLQVVPATPDLTGAEVELVNQDNREFRLRDALRPLAAEYDYIIIDCPPSLGLLTLNALAAADSVLIPLQCEYYALEGLSQLTHTIDLVKQGLNPDLKMEGILLTMFDSRANIAHQVVEEVRGYFKKQVFEVIVPRNVRLSECPSFGKPIILYDIKSKGCESYLALGRELMKRDT
notes: For NMR the protein was 2H/13C/15N-labelled; source: E. coli Rosetta(DE3)pLysS, purified (as His6-ParA)
Take B1: the binding result in data set [8] is reported as “binds”.

B2: ParA (wild type) (natural protein, Myxococcus xanthus DK1622, UniProt Q1CVJ3 1-283, looked up)
chain: T1 sequence
notes: ParA of Myxococcus xanthus DK1622, translation product of ORF MXAN_7477; No tag cleavage step is described; also called His6-ParA; wild-type ParA; source: E. coli Rosetta(DE3)pLysS, purified (HisTrap HP, HiTrap Q HP)
B2: the binding result (with ParB-Q52A; in [9]) was “binds” in each case.

B3: ParA-Y81L (natural protein, Myxococcus xanthus DK1622, UniProt Q1CVJ3 1-283, looked up)
chain: T1 sequence with Y81L
notes: ParA of Myxococcus xanthus DK1622 with an exchange in the helix H4/H6/H7 region; also called Y81L variant; source: E. coli Rosetta(DE3)pLysS, purified (as His6-ParA)
As for B3, in the data set with ParB-Q52A, the binding result was “binds”.

B4: ParA-D110R (natural protein, Myxococcus xanthus DK1622, UniProt Q1CVJ3 1-283, looked up)
chain: T1 sequence with D110R
notes: ParA of Myxococcus xanthus DK1622 with an exchange in the helix H4/H6/H7 region; source: E. coli Rosetta(DE3)pLysS, purified (as His6-ParA)
In the case of B4, in the data set with ParB-Q52A, the binding result is “binds”.

B5: ParA-D110R/E117R (natural protein, Myxococcus xanthus DK1622, UniProt Q1CVJ3 1-283, looked up)
chain: T1 sequence with D110R, E117R
notes: ParA of Myxococcus xanthus DK1622 with two exchanges in the helix H4/H6/H7 region; source: E. coli Rosetta(DE3)pLysS, purified (as His6-ParA)
On to B5, for which, in the data set with ParB-Q52A, the binding result is recorded as “binds”.

B6: ParA-E117R (natural protein, Myxococcus xanthus DK1622, UniProt Q1CVJ3 1-283, looked up)
chain: T1 sequence with E117R
notes: as for B4
B6: the binding result in the data set with ParB-Q52A is “binds”.

B7: ParA-R238E (natural protein, Myxococcus xanthus DK1622, UniProt Q1CVJ3 1-283, looked up)
chain: T1 sequence with R238E
notes: ParA of Myxococcus xanthus DK1622, translation product of ORF MXAN_7477; Purified as His6-ParA; no tag cleavage step is described; also called His6-ParA-R238E; source: E. coli Rosetta(DE3)pLysS, purified (HisTrap HP, HiTrap Q HP)
As to B7, the binding result with ParB-Q52A-R13K and with ParB-Q52A-R13A was “binds” in each case. The Kd in the data set with ParB (wild type) was roughly 1000 nM.
